Assay [1] has as its target 40S small ribosomal subunit (salt-washed, purified) (human) (UniProt P23396). The experiment in a line: fluorescence polarisation. A general note: In fluorescence polarisation assays a small probe gives low polarisation when free and higher when bound to something large.
For assay [2], the target named is 43S preinitiation complex (40S + eIFs 1, 1A, 5, 3j, eIF2-TC and eIF3) (human) (UniProt P23396). Description: native gel or EMSA. Background: Mobility shift assays separate free from complexed probe on a gel.
Assay [3] shares this target. The experiment in a line: fluorescence polarisation.

fluorescence-labeled Pdcd4-NTD (FL-Pdcd4-NTD, residues 1-156), sequence (Q53EL6 1-156): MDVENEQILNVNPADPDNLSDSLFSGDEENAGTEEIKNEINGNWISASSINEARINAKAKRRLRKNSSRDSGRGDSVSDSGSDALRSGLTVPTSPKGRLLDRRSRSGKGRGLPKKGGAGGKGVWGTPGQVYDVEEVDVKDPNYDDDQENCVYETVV
Pdcd4 (programmed cell death 4), wild type, residues 1-469, sequence (Q53EL6 whole entry, the tested form may be a part): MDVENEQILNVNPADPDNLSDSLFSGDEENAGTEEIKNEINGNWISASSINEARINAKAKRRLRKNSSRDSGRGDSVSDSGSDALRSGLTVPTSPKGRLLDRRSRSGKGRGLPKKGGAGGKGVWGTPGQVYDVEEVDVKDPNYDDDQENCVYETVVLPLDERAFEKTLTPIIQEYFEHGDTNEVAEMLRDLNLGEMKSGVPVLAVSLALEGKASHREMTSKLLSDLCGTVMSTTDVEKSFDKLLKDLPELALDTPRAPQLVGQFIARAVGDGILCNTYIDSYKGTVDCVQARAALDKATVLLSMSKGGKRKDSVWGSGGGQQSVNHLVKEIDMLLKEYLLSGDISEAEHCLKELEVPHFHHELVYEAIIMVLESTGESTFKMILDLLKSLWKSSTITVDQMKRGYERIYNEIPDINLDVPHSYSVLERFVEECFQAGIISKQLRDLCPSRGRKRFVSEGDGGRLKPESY
fluorescence-labeled full-length Pdcd4 (FL-Pdcd4), sequence (Q53EL6 whole entry): as the sequence (Q53EL6 whole entry, the tested form may be a part) above
Pdcd4-NTD (residues 1-156), unlabeled, sequence (Q53EL6 1-156): as the sequence (Q53EL6 1-156) above

As usually defined, the Ki is the dissociation constant of the complex between target and ligand, obtained from inhibition or displacement. Consider “Pdcd4-NTD (residues 1-156), unlabeled (from UniProt Q53EL6 1-156) (domain or fragment)”, for which, in assay [1], the Ki is 21 nM.
On to “fluorescence-labeled Pdcd4-NTD (FL-Pdcd4-NTD, residues 1-156) (from UniProt Q53EL6 1-156) (domain or fragment)”, for which the percent binding compared to the 40S (lane 2) in assay [2] was less than 20%. Also, the fold reduction in affinity against the 40S alone in assay [1] was more than 10 fold; in assay [3] it was more than 100 fold.
For “fluorescence-labeled full-length Pdcd4 (FL-Pdcd4) (from UniProt Q53EL6 1-469) (natural protein)”, the percent binding compared to the 40S (lane 2) in assay [2] was less than 20%.
Consider “Pdcd4 (programmed cell death 4), wild type, residues 1-469 (from UniProt Q53EL6 1-469) (natural protein)”, for which the Ki in assay [1] turned out to be 23 nM.

The values are drawn from article doi:10.1101/2024.05.01.592117.
